Results on six molecules are retold here after patent publication US20250250314A1 (XILIO DEVELOPMENT, published 2025).

Positions count from the first letter of the chain named.

In this assay the target is PD-1 from the PD-1 effector cells (UniProt Q15116 25-288, limits assumed). Kind of assay: cell-based or functional assay.
Chain of PD-1 from the PD-1 effector cells (Q15116 25-288 limits assumed): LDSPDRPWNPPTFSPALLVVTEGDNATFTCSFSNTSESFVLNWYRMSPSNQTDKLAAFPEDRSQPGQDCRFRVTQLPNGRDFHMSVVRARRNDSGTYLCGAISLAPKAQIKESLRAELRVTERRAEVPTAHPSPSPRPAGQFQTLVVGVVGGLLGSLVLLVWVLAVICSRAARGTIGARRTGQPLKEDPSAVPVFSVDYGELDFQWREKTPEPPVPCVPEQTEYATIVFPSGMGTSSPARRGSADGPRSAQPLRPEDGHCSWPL

B1: UCM7 (other)
heavy 1: QVQLVQSGVEVKKPGASVKVSCKASGYTFTNYYMYWVRQAPGQGLEWMGGINPSNGGTNFNEKFKNRVTLTTDSSTTTAYMELKSLQFDDTAVYYCARRDYRFDMGFDYWGQGTTVTVSSASTKGPSVFPLAPSSKSTSGGTAALGCLVKDYFPEPVTVSWNSGALTSGVHTFPAVLQSSGLYSLSSVVTVPSSSLGTQTYICNVNHKPSNTKVDKKVEPKSCDKTHTCPPCPAPELLGGPSVFLFPPKPKDTLMISRTPEVTCVVVDVSHEDPEVKFNWYVDGVEVHNAKTKPREEQYASTYRVVSVLTVLHQDWLNGKEYKCKVSNKALPAPIEKTISKAKGQPREPQVYTLPPCRDELTKNQVSLWCLVKGFYPSDIAVEWESNGQPENNYKTTPPVLDSDGSFFLYSKLTVDKSRWQQGNVFSCSVMHEALHNRFTQKSLSLSPGGGSSPPGGGSSGGGSGPAPTSSSTKKTQLQLEHLLLDLQMILNGINNYKNPKLTAMLTAKFAMPKKATELKHLQCLEEALKPLEEVLNLAQSKNFHLRPRDLISNINVIVLELKGSETTFMCEYADETATIVEFLNRWITFAQSIISTLT
heavy 2: QVQLVQSGVEVKKPGASVKVSCKASGYTFTNYYMYWVRQAPGQGLEWMGGINPSNGGTNFNEKFKNRVTLTTDSSTTTAYMELKSLQFDDTAVYYCARRDYRFDMGFDYWGQGTTVTVSSASTKGPSVFPLAPSSKSTSGGTAALGCLVKDYFPEPVTVSWNSGALTSGVHTFPAVLQSSGLYSLSSVVTVPSSSLGTQTYICNVNHKPSNTKVDKKVEPKSCDKTHTCPPCPAPELLGGPSVFLFPPKPKDTLMISRTPEVTCVVVDVSHEDPEVKFNWYVDGVEVHNAKTKPREEQYASTYRVVSVLTVLHQDWLNGKEYKCKVSNKALPAPIEKTISKAKGQPREPQVCTLPPSRDELTKNQVSLSCAVKGFYPSDIAVEWESNGQPENNYKTTPPVLDSDGSFFLVSKLTVDKSRWQQGNVFSCSVMHEALHNHYTQKSLGGPLGLGGSSGSGGSGGGSGSGGGEVQLVESGGGLVQPGGSLRLSCAASGSIFSINVMGWYRQAPGKQRELVAAISSGGSTNYADSVKGRFTISRDNAKNTVYLQMNSLKPEDTAVYYCMYASSWYEDETDYWGQGTQVTVSS
light: EIVLTQSPATLSLSPGERATLSCRASKGVSTSGYSYLHWYQQKPGQAPRLLIYLASYLESGVPARFSGSGSGTDFTLTISSLEPEDFAVYYCQHSRDLPLTFGGGTKVEIKRTVAAPSVFIFPPSDEQLKSGTASVVCLLNNFYPREAKVQWKVDNALQSGNSQESVTEQDSKDSTYSLSSTLTLSKADYEKHKVYACEVTHQGLSSPVTKSFNRGEC
As for B1, the “EC50 (nM), fold induction of luminescence in the PD-1/PD-L1 Blockade Bioassay” value (“EC50 (nM), fold induction” below) amounted to 1.36 nM.

B2: UCM8 (other)
heavy 1: B1 heavy 1
heavy 2: QVQLVQSGVEVKKPGASVKVSCKASGYTFTNYYMYWVRQAPGQGLEWMGGINPSNGGTNFNEKFKNRVTLTTDSSTTTAYMELKSLQFDDTAVYYCARRDYRFDMGFDYWGQGTTVTVSSASTKGPSVFPLAPSSKSTSGGTAALGCLVKDYFPEPVTVSWNSGALTSGVHTFPAVLQSSGLYSLSSVVTVPSSSLGTQTYICNVNHKPSNTKVDKKVEPKSCDKTHTCPPCPAPELLGGPSVFLFPPKPKDTLMISRTPEVTCVVVDVSHEDPEVKFNWYVDGVEVHNAKTKPREEQYASTYRVVSVLTVLHQDWLNGKEYKCKVSNKALPAPIEKTISKAKGQPREPQVCTLPPSRDELTKNQVSLSCAVKGFYPSDIAVEWESNGQPENNYKTTPPVLDSDGSFFLVSKLTVDKSRWQQGNVFSCSVMHEALHNHYTQKSLSLPLGLGGSSGSGGSGGGSGSGGGSGGSGGEVQLVESGGGLVQPGGSLRLSCAASGSIFSINVMGWYRQAPGKQRELVAAISSGGSTNYADSVKGRFTISRDNAKNTVYLQMNSLKPEDTAVYYCMYASSWYEDETDYWGQGTQVTVSS
light: B1 light
Take B2: the “EC50 (nM), fold induction” value turned out to be 1.09 nM.

B3: UCM5 (other)
heavy 1: B1 heavy 1
heavy 2: B1 heavy 2 with Q441A, K442P, S443A, L444G, G445L, G446I, P447V, L448P, G449Y, L450N
light: B1 light
With B3, the “EC50 (nM), fold induction” value amounted to 1.15 nM.

B4: UCM4 (other)
heavy 1: B1 heavy 1
heavy 2: B1 heavy 2 with S443M, L444P, G445Y, G446D, P447L, L448Y, G449H, L450P
light: B1 light
For B4, the “EC50 (nM), fold induction” value was determined as 1.28 nM.

B5: UCM6 (other)
heavy 1: B1 heavy 1
heavy 2: B1 heavy 2 with Q441P, K442A, S443N, G445V, G446A, L448D, G449P, L450G
light: B1 light
Turning to B5, the “EC50 (nM), fold induction” value worked out at 1.2 nM.

B6: UCM2 (other)
heavy 1: B1 heavy 1
heavy 2: B1 heavy 2 with G445S, G446L
light: B1 light
For B6, the “EC50 (nM), fold induction” value came out at 0.84 nM.
